Test results as given in a protein production outcome set (Wang et al. 2014).

Assay: label from the status in PepcDB records

| Sequence | protein production |
| --- | --- |
| MTLNIYTEEWAPISFSVDGKPDGLAVQVVQEIQKRIDNQDPIKVVPWARGWKIITEQPNTVLFTMTRTAERERMFSLIGPVAVGTTNFYALKNSNLEHHHHHH | failed |
| MSENQDELLHYRLSLRLGPVHARQRLGIERETEARVFGRDKRSFHLENLTNAPKLIRFCLKAVGLLRRAQANSLKLTTEHNTFVLPDLPSAFEGFRILHLTDLHVDMDEANLQAVIRQIAPLDYDLCVLTGDYRQRTWGPVDDALDGMARLRLAIHGDAYAVLGNHDSVRMVPALEDMGYRLLMNEMVPLERGDSRLYLAGVDDAHYYKVHNLHRAGDDIPAGGISLLLSHTPEIWREAAHAGYDLFLCGHTHGGQLCLPGGIPLTLDSDCPRRLGRGLWQVNGMQGYTSPGAGTSVLNVRLNCPPEVTIHTLTRGPLEHHHHHH | failed |
| MKVTVTTLELKDKITIASKALAKKSVKPILAGFLFEVKDGNFYICATDLETGVKATVNAAEISGEARFVVPGDVIQKMVKVLPDEITELSLEGDALVISSGSTVFRITTMPADEFPEITPAESGITFEVDTSLLEEMVEKVIFAAAKDEFMRNLNGVFWELHKNLLRLVASDGFRLALAEEQIENEEEASFLLSLKSMKEVQNVLDNTTEPTITVRYDGRRVSLSTNDVETVMRVVDAEFPDYKRVIPETFKTKVVVSRKELRESLKRVMVIASKGSESVKFEIEENVMRLVSKSPDYGEVVDEVEVQKEGEDLVIAFNPKFIEDVLKHIETEEIEMNFVDSTSPCQINPLDISGYLYIVMPIRLA | not failed |
| RESVEKQKKLEAILVSMDSGVIAVDRKHKIIMINPYAEKIFGIDKNIIGQSLMDCIRNYEFEDIFNKRAEGYAEIKTSWPKERNLRIKTADIINGYECIGTVAVVQDIT | failed |
| MIGHRISRLGSTIVKQLAREGYLATYGTKNLHRSYGHYLQSLPVVPRQARTSQEAWFLKSHKFCTSSTTSSENGDEETEKITIIFVDKDGEEIPVKVPIGMSVLEAAHENDIDLEGACEASLACSTCHVIVMDTEYYNKLEEPTDEENDMLDLAFGLTETSRLGCQVIARPELDGVRLAIPSATRNFAVDGFVPKPH | failed |
| MGAVVVKDLRKRIGKKEILKGISFEIEEGEIFGLIGPNGAGKTTTLRIISTLIKPSSGIVTVFGKNVVEEPHEVRKLISYLPEEAGAYRNMQGIEYLRFVAGFYASSSSEIEEMVERATEIAGLGEKIKDRVSTYSKGMVRKLLIARALMVNPRLAILDEPTSGLDVLNAREVRKILKQASQEGLTILVSSHNMLEVEFLCDRIALIHNGTIVETGTVEELKERYKAQNIEEVFEEVVKCSENF | not failed |
| MENTLSFKKQGYWLFSSAIIIGVLFLLLPHIISNIGVLEFIGAFFNALCMGVIAFIILKAEFLDWFKHFSFKWIIIGAPALIIISSIFNIAWAYFAGSTTENGINSVLTWTYVFTSIPFMLLGEELLSISLLYAAWKKWNWKFWQASLLCSLLFATWHLTSYDFNFLQCIITLAPARLILNYLFKKTNSVWVTFIVHFIFDFIAFLPILLK | failed |
| MRDALHVTADDADATDDAIPDSRETGVTGVVLAGGLSTRLGHDKAVIRLHGEQGPDLLVRTAALLEPLVDEVWISCRPGRCVTGPYLRIYDEVQGLGPFGGVMTALRAAQGPVLVLSCDLPFMERTLLERLLERRGARHPEALMTTFRQEETGFIESLVAVYEYACLPFFEDALTDGVHKLSRVIPAERREDIVYTQNEALPFFNVNYPADLEMARRIIGALLEHHHHHH | failed |
| MKGLFKNKSRLPGEIVRQTRDLIALAESEEEETDARNSKRLGICAELCRNIRDLKSILYGNGEAEPVPEACLLLTQEFFRADTLRPLIKSIPKLDLEARKDATQIVANLQKQQVEFRLVASEYLESNLDVIDSLVEGIDHDHELALHYTGMLKECVRHQVVAKYILESKNLEKFFDYVQLPYFDVATDASKIFRELLTRHKSTVAEYLAKNYEWFFAEYNTKLLEKGSYFTKRQASKLLGDVLMDRSNSGVMVKYVSSLDNLRIMMNLLREPTKNIQLEAFHIFKLFVANENKPEDIVAILVANRTKILRLFADLKPEKEDVGFETDKALVMNEIATLSLLDIKTADR | failed |
| MNLQNWKLSEYVCAVENLSYTEFFRIIEYANDAGIPVNFVTNGTLITEEFVKKLSELNIGSVQVSLDGSKPEIMDRLRGNGIFHRAINSIKRLIDYGINTSVAFCATRINIRDFPNVVELASKLGVFEVRSMYFVPETEAHIKLAPSESQYKELLQWIYDN | failed |
| MSLGVTMHDVAKAAGVSAITVSRVLNQPQQVSEQLREKVMQAVDALAYVPSRSASTLASAKSRTVLVLIPSLANTVFLETLTGIETVLDAAGYQMLIGNSHYDAGQELQLLRAYLQHRPDGVLITGLSHAEPFERILSQHALPVVYMMDLADDGRCCVGFSQEDAGAAITRHLLSRGKRRIGFLGAQLDERVMKRLDGYRAALDAADCRDAGLEWLDPQPSSMQMGADMLDRALAERPDCDALFCCNDDLAIGALARSQQLGIAVPERLAIAGFNDLQPAAWCTPPLTTVATPRRDIGVHAAKALLQLIDGEEPASRRADLGFRLMLRRSSEGHHHHHH | not failed |
| MRTRWLPRGRGLGSASARLRSAVAGRGTVRAELGYGAFLSYSGERDRRWLPQLRHAIEKQSRPWYKPPHIRVFLDKTGVSIGPELWGKIEAGLARSDWLVVLASPEARASVWVDREIAWWLEHKSVHTILLVVTAGQLVWDEERGDWDPERSTALPARLAGKFERQPVWKSVDPRPDGDAVFSTDDAGFSPDVDGVAFGVASVVRGLSEDELRSEGLRDTRRNLRTARIVATALGCLLLVASTLSVVAVLSRAEATRQRDQAVVQQLITQSSLLAERDPFAARLKALAAWRIDPSPETRFAVLDAAVNPASGVLSHSVPVDSVAFSPDGRTVASGGSDGVVRIWRTGTQRTAGRPLIGHHQGITSIAFAPDGRTLASSGFDGTVRLWDLADRTQIGAPFNAGAGSVRSVAFGRDGRTLVTVDEADSGTVRVWDVATHRQTGHPLDGPGPVLGTNADGSRVGSSTSQGGIRLWDTASGAPAGGALKGGDGVVTALSFSSDGKTFATADLVGNLRLWDIEARAPVGEPIASPATSTGVRAITFSPDGAMLAAAYEGGGVRLWDLRRRAQVGGPLLAHTSTVESVAFSPDGSVLASASADTTVRLWDVRTLRQAGAPIDTGGKGAAALSPDGRSLAVVDSEQAVRLWDVVARRRVGEPLVRGVYSFSPSLAFRADGAVLAIGADGLRLREVATRRPVGEPLLGTGDVGALSFGPDGRTLVSGGPDSVHVWDLTARPPTGTALGPRSVGVALSPDGRSLATTTQDDTVVFWDMATRRRIGETPGDHTAQITAVAWSPDGTTLATAGRDDTVRLWDAATRERIGAPLRGHHGGLTSVVFSPDGATLATGGNDHTVRLWDVATERPIGAPLEGHGAGVTGVAFTPGGDTLVSWAQDGTARLWNVAATVDPVRSLCAWADGAFTTDRWHEDVPAGPASRTLCRK | failed |
| YTPMSDLGQQGLFDITRTLLQQPDLASLSEALSQLVKRSALADSAGIVLWQAQSQRAQYYATRENGRPVEYEDETVLAHGPVRRILSRPDALHCNFHEFTETWPQLAASGLYPEFGHCCLLPLAAEGRIFGGCEFIRQEDR | failed |
| MAKIITPLSANQVKNAKPGDKLYKLSDGGGLALWVYPTGRRSWKLSFMQDGRQQTISLGRYPDFSLAEAREWREEVRRKRAHGENVVNKKVRADFAFEKVARDWFVRWSKGRSEKYAGQVMRNFERWVFPAIGNLDIRQVRTADVVGCLRVMEARGIVDTLRKTKNSLKMVFAFAVGSGMMEINPVAQIGSGVFERVKTKNMTALSPSELPRLIDFLEQRNEFAVYAGRVHIHPVTRFCIYWLLLTMTRIREAALMEWSELDGEVWRIPAERKKERRGHDVPLSRAMRWVLDQARGLNVNGRFVFESVNFQGHINKESPHVAMRRSGLDTTAHGLRSLARTYLREVLKVYNDVAEKLLAHSLGTRTQTAYNRSELWEERKDAPERWGNDVLRLADNGK | failed |
| SSPQDTCCPPDSWPALKVDYKPKGKLEDIGKGLKAYVVGNGPRAVIALNDVFGIESGHSKEICDAIADKGFTVVFPDVFRGKPLQVSDMSKLFDELPGWAKQFDYEPALRKDVVEVILPYLHDKLGFKSNDQIALAGFCWGAFMLFHLAGDTKLPGGPFACGVSFHPSVQIEGVFQRDPLQLIDRATCPQLLLPSAGEPDYMKEEGDAIKKLRAKPFGASCGVKTFPSMQHGWVNRGDRNDPQVVKEAQEALQLAVDFMMRHTKPKA | not failed |
